Measurements published in the nanobody polyreactivity screen of Harvey et al. (2022).

Test: yeast display, Sf9 membrane polyspecificity reagent, FACS + sequencing; frameworks hold sequencing errors
How it was run: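 A synthetic nanobody library was expressed on Saccharomyces cerevisiae BJ5465 by galactose induction for 36–48 hours. The library was stained for 1 hour at 4 °C with 10% biotinylated, detergent-solubilized Sf9 membrane reagent and enriched with streptavidin microbeads before FACS. Low and high (top ~1%) gates were set on anti-HA fluorescence for expression and streptavidin fluorescence for reagent binding, and each polyreactivity label reflects the gate of origin.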

Sequence | polyreactivity (PSR sort gate)
QVQLVESGGGLVQAGGSLRLSCAASGNIFVRYTMGWYRQAPGTERELVARITSGGSTYYADSVKGRFTISRDNAKNTVYLQMNSLKPEDTAVYYCAAAIGTRLYSYYYWGQGTQVTVSS | high polyreactivity
QVQLVESGGGLVQAGGSLRLSCAASGRTFRIYATGWYRQAPGKERELVAAITRGGSTYYADSVKGRFTISRDNAKNTVYLQMNSLKPEDTAVYYCNAAPYYWGYDYWGQGTQVTVSS | high polyreactivity
QVQLVESVGGLVQAGGSLRLSCAASGRTFTTNAMGWYRQAPGKERELVAAITIGDDTYYADSVKGRFTISRDNAKNTVYLQMNSLKPEDTAVYYCAADYKRVPFVTQYVSKDGYWGQGTQVTVSS | low polyreactivity
QVQLVESGGGLVQAGGSLRLSCAASGSTFVQNAMGWYRQAPGKERELVAAISRTGGSTYYADSVKGRITFSRDNAKNTVYLQLNTLKPEDTAVYFCAKRPPHYSWPKIIEFGSWGQGTQVTVSS | high polyreactivity
QVQLEESGGGLVQAGGSHRLSCAASGITFSLYAMGWYRQAPGKERELVATIDSGGSTNYADSVKGRFTISRDNAKNTVYLQMNSLIPEDTAVYYCAADGVWYYYDMDYWGQGTQVTVSS | low polyreactivity
QVQLVESGGGLVQAGGSLRLSCAASGFTFSVYVMGWYRQAPGKERELVAAISSGGDTTYADSVKGRFTISRDNAKNTVYLQMNSLKPEDTAVYYCAAYRVILYYLYDYWGQGTQVTVSS | low polyreactivity
QVQLEESGGGLVQAGGRLRLSCAASGPIFGYYAMGWYRQAPGKERELVAGIDWSGGNTYYADSVKGRFTISRDNAKYTVYLQMNSLKPEDTAVYYCNTEGGRDTAWYDYWGQGTQVTVSS | low polyreactivity
QVQLVESGGGLVQAGGSLRLSCAASGLTFGRNAMGWYRQAPGKERELVAAISRSGGRTSYADSVKGRFTISRDYAKNTVYLQMNSLKPEDTSVYFCAALSDVYTHDYWGQGTQVTVSS | high polyreactivity
QVHLVESGGGLFQAGGSLRISCSASGSIFARNAMGWYRQAPGKERELVAAISRSGGSTYYADSVKGRFTISRDNAMMTVSFQMNSLKPEDTAVYYCAAVRRRTVGYNYWGQGTQVTVSS | high polyreactivity
QVQLVESGGGLVQAGGSLRLSCAASVFTLWLNAMGWYRQAPGKERELVAAITTSDDGTYYADSVKGRFTISRDNAKNTVYLQMNSLKPEDTAVYYCAADYYSVLYDYWGQGTQVTVSS | low polyreactivity
QVQLVESGGGLVQAGGSLRLSCAASGLIFSYYAMGWYRQAPGKETELVAGITRSGASTYADSVKGRFTISRDNAKNTVYLQMNSLKPEDTAVYYCAADWHYLGWFWQYSKYDYWGQGTQVTVSS | high polyreactivity
QVQLVESGGGLVQAGGSLRLICAASGSIYYSYGMGWYRQAPGKERELVAAITSSGGGTYYADSVKGRFTISRDNAKNTFYLQMNSLKPEDTAVYYCAADDRNYNYYPTFYYWGQGTQVTVSS | low polyreactivity
QVQLVYSGGGLVQSGGSLRLSCAASGYIVQPYAMGWYRQAQGKERELVAPISWRGGSTYSADSVKGRFTISRDNAKNTVYLQMYSLKPEDTAVYYFAKDYYYGLEHYGYWGQGTQVTVSS | low polyreactivity
QLQLVESGGGLVQAGGSLRLSCAASGSTIDHNAMGWYRQAPGKERELVATISSSGGSTYYADSVKGRFTISRDNAKNTVYFQMNSLKPEDTAGYDCNRYFRRGGRYPYNYWGQGTQVTVSS | high polyreactivity
QVQLVESGGGLVQAGGSLRLSCAASGYIFYFNDMGWYRQAPGKERELVADITYSGDSTYYADSVKGRFTISRDNAKNTVYLQMNSLKPEDTAVYYCAARRGWWYRGDDYWGQGTQVNVSS | low polyreactivity
QVQLVESGGGLVQAGGSLRLSCAASGNIFVTYAMGWYRQAPGKERELVAGITSSDDSTYYADSVKGRFTISRDNAKNTVYLQMNSLKPEDPAVYYCATYYWEVGIGQYYYWGQGTQVTVSS | low polyreactivity
QVQLVESGGGLVQAGGSLRLSCAASGRTFYYYAMGGYRQAPGKERELVAAIRGGGGSTYADSVKGRFTISRDNAKNTVYLQMNSLKPEDTAVYYCNVVRTGRYPGFLTFDYWGQGTQVTVSS | high polyreactivity
QVQLVESGGGLVQAGGSLRLSCAASGIIFTDYAMGWYRQAPGKERELVAAISSGGGSTYYADSVKGRFTISRDNAKNTVYLQMNSLKPEDTAVYYCAAEGYLISGAGDYLYDYYWGQGTQVTVSS | high polyreactivity
QVQLVESGGGLVQAGGSLRLSCAASGSIFDTYAMGWYRQAPGKERELVAAITWSGSSTYYADSVKGRFTISRDNAKNTVSLQMNRLKPEDTAVYYCAKRQYLYTSKYDYWGQGTQVTVSS | high polyreactivity
QVQLVESGGGLVQSGGSLRLTCAASGRTFPYYAMGWYRQAPGKERELVAAISRRGGSTYYADSVKGRFTISRDNAMNTVYLQMNSLKPEDTAVYYCAAAGGVSGGEYDYWGQGTQVTVSS | high polyreactivity
QDQLVESGGGLVQAGGSLRLSCAASGFIVHRYVMGWYRQAPGKERELVAAISSGGSTNYADSVKGRFTISRDNAKNSVYLQMTSLKPEDTAVYYCAADGFYYRNWGRFRYYYWGQGTQVNVSS | low polyreactivity
QVQLVESGGGLVQAGGSLRLSCAASGRTFKTYAMGWYRQAPGKERELVAAISASGGRTYYADSVKGRFTISRDNAKNTVYLQMNSLKPEDTAVYYCAALGYILNGGDYWGQGTQVTVSS | high polyreactivity

Sequence | polyreactivity (PSR sort gate)
QVQLEESGGGLVQAGGSLRLSCAAYYAMGWYRQAPGKERELVAAISSTGRTNYADSVKGRFTISRDNAKNTVYLQMNSLKPEDTAVYYCNAGDRSGMEYWGQGTQVTVSS | low polyreactivity
QVHLVESGGGLVQAGGSLRLSCAASGFIFSFYGMGWSRHAPAKESELVAAISSGGTTYYADSVKGRFTISRDNAKNSVYLQMNSLKPEDTAVYYCAGRVARRTTSVFSYFSRYNYWGQGTQVSVSS | high polyreactivity
QVQLVESGGGLVQAGGSLRLSCAASGFIFRYNAMGWYRQAPGKERELVAVITSGDNTYYADSVKGRFTISRDNAKNTVYLQMNSLKPEDTAVYYCAARYRHYFVRGGYWGQGTQVTVSS | high polyreactivity
QVQLVESRGGLVQARGSLRLSSAASGFIFNANAMGCYRPAPGKESELVAAIDDGDSTYADSVKGRFTISRDNAKNTVYLQMNSLKPEDTAVYYCAVDGGEFSSYGYWGEGTQVTVSS | low polyreactivity
QVQLVESCGGLVQAGGSLRLSCAASGSTFRYYPMGWYRPATGKETELVASISIGGGSTYYADSVKGRFTISRDHAKNTVYLQMNSLKPEDTAGYYCAAERTIRAARPFFRTFDYWGQGTQVTVSS | low polyreactivity
QVQLVESGGGLVQAGRSLRLSCAASGYTIRYYAMGWYRQAPGKERELVAAITNRGGTYYADSVKGRFTISRDNAKNTVYLQLNSLKPEDNAVYYCAARYYWIDFKFGGPRDYWGQGTQVTVSS | high polyreactivity
QVQLVESGGGLVQAGGSLRLSCAASGSIFGYNAMGWYRQAPGKESELVAAISSSGGRTYYADSVKGRFTNSRDNAKNTVYLQMNSLKPEDTAVYYCAALGLYGDYLWYDYWGQGTQVTVSS | high polyreactivity
QVQLQERGGGLVQVGGSQRLSCAASGNIFYNYAMGWYRHAQGKEREFDATINHGTSINYADSVKGRFTISRDNAKNSVYLQMNSLKPEDTAVYYCAADLSWTDNLFYWGQGTQVTVSS | low polyreactivity
QVQLVESGGGLVKAGGSLRLSCASSGRIFRYYTMGWYRQAPGKERELVAAISTSDDSTNYADSVKGRFTISRDNAKNTVYLQMNSLKPEDTAVYYCAADQSRVGSYQDYDYWGQGTQVTVSS | low polyreactivity
QVQLVESGGGLVQAGGSLRLSCAASGNIFPPNTMGWYRQAPGKERELVAVITWSDGGTYADSVKGRFTISRDNAKNTVYLQMNSLKPEDSAVYYCNADYYFAAPKGEYTAWYDYWGQGTQVTVSS | low polyreactivity
QVQLVESGGGLVQAGGSLRLSCAASGSIFYINAMGWYRQAPGKEREFVATITWSGDSTYYADSVKGRFTISRDNAKNTVYLQMNSLKPEDTAVYYCTARKQYQSYVDWEYDYWGQGTQVTVSS | low polyreactivity
QVQLVESGGGLVQAGGSLRLSCAASGYTIRGYVMGWYRQAPGKERELVAAISASGGRTYYADSVKGRFTISRDNAKNTVYLQMNSLKPEHTAVYYCAASKSKISSLDYWGQGTQVTVSS | high polyreactivity
QVQLVESGGGLVQAGGSLRLSCAASGSTFKVYAMGWYRQAPGKEMELDAAISRSGGRTYYADSVKGRFTISRDNAKNTVYLQMNSLKPEDTAVYYCNRDYTYSQGHYSGSYDYWGQGTQVTVSS | high polyreactivity
QVQLVESGGGLVQAGGSLRLSCAASGRIFSYYAMGWYRQAPGKERELVARISWRGGSTYYADSVKGRFTISRDNSKNTVYLQMNSLKPEDSAVYYCAATSPYYRTGYDYWGQGTQVTVSS | high polyreactivity
QVQLVESGGCLVQAGGSLRLSCAASGFTFSDNSMGWYRQAHGKERELVATISQSSGSTSYADSLKGRFTISRDNAKNTVYLQMNSLKPEDTAVYYCAKRRLFYWGLGTQVTVSS | low polyreactivity
QVQLVESGGLIVQAGRSIRLTCAASGSIFYSYPMGWYRQAPGKERELVAAIRFSRGTTYYADSVKGRFTISRDNAKNTVYLQMNSLKPEDTAVYYCAATLSSYSYLFEYDYWGQCTQVTVSS | low polyreactivity
QVQLVESGGGLVQAGGSLRLSCAASGRIFNYYAMGWYRQAPGKERELVAAISSGGSTYYADSVKGRFTISRDNAKNTVYLQMNSLKPEDTAVYYCAAAYGDYGYWGQGTQVTVSS | high polyreactivity
QVQLVESGGGLVQAGGSLRLSCAASGFTFEYYAMGWYRPAPGKERELVADITTSSAGTYYADSVKGRFTISRDNAKNTVYLQMNSLKPEDTAVYYCNRDDLNTGEDLDYWGQGTQVTVSS | low polyreactivity
QVQLVESGGGLVQAGGSLRLSCAASGFIFGNYVMGWYRQAPGKERELVAAITNGGGNTYYADSVKGRFTISRDNAKNTVYLQMNSLKPEDTAVYYCHPLRYYYWGQGTQVTVSS | high polyreactivity
QVQLVESGGGLVQAGGSLRLSCAASGRIFAFYAMGWYRQAPGKEREFVAAITYSGGNTNYADSVKGRFTISRDNAKNTVYLQMNSLKPEDTAVYYCAAALVYGVYYQEDYWGQGTQVTVSS | low polyreactivity
QVQLVESGGGLVQAGGRLRLSCAASGLTFKSYTMGLYRQAPGKERELVATISGSGTRTYYADSVKGRYTISRDNAKNTVFLQMNSLKPEDTAVYYCARVILYNNYFRYSGYRYDYWGQGTQGTVSS | high polyreactivity
